Key:
purified protein [1] = substrate: O=C(O)C(=O)CO; test: purified protein; type: biochemical, Vitis vinifera; conditions: 1 mM NADPH, 100 mM HEPES pH 7.5, 37 °C
purified protein [2] = substrate: O=CC(=O)O; test: purified protein; type: biochemical, Vitis vinifera; conditions: 1 mM NADPH, 100 mM HEPES pH 7.5, 37 °C
purified protein [3] = substrate: O=C(O)C(=O)[C@@H](O)[C@H](O)[C@@H](O)CO; test: purified protein; type: biochemical, Vitis vinifera; conditions: 1 mM NADPH, 100 mM HEPES pH 7.5, 37 °C
purified protein [4] = substrate: CC(=O)C(=O)O; test: purified protein; type: biochemical, Vitis vinifera; conditions: 1 mM NADPH, 100 mM HEPES pH 7.5, 37 °C
[5] = target: the molecule itself; test: crystal structure; ligand-free Vv2KGR, space group P2(1), four subunits (chains A-D) in the asymmetric unit, 1.58 Å; crystals from 1.26 M ammonium sulfate, 100 mM sodium acetate/acetic acid pH 4.5, 200 mM NaCl, 16 °C; oligomeric interface analysed with PDBePISA

B1: Vitis vinifera 2-keto-L-gulonate reductase (Vv2KGR) (enzyme, UniProt A5CAL1 1-313, looked up)
chain: MESIGVLLTCPMNPYLEQELDKRFKLFRFWDFPSANDLFREHSNSIRAVVGNSFIGADAQMIEALPKMEIVSSFSVGLDKIDLVRCKEKGIRVTNTPDVLTEDVADLALALILATLRRICESDRYVRSGSWKKGDFKLTTKFTGKSVGIIGLGRIGSAIAKRAEGFSCPISYHSRTEKPGTNYKYYPSVVELASNCQILVVACALTPETRHIINREVINALGPKGVVINIGRGLHVDEPELVSALVEGRLGGAGLDVFENEPNVPEELLAMDNVVLLPHVGSGTVETRKDMADLVLGNLEAHFLNKPLLTPVV
notes: Vv2KGR, Vitis vinifera cv; The forward primer carries an ATG of the NdeI site directly before the gene's own ATG; also called aldo-keto reductase; apo-Vv2KGR; source: E. coli BL21(DE3) pLysS-T1, pET14b, purified (HisTrap FF Crude, HiTrap Q HP, dialysis); not shown: His tag (from the vector pET14b)
B1 showed a Km (purified protein [1]) of 96 µM, a Vmax (purified protein [1]) of 6.29 µmol/min/mg and a kcat (purified protein [1]) of 6.97 s⁻¹. The Km (purified protein [2]) was 44 µM, the Vmax (purified protein [2]) was 13.8 µmol/min/mg and the kcat (purified protein [2]) was 38.3 s⁻¹. It also gave a Km (purified protein [3]) of 700 µM, a Vmax (purified protein [3]) of 7.54 µmol/min/mg and a kcat (purified protein [3]) of 4.18 s⁻¹. The Km (purified protein [4]) was 1371 µM and the “stoichiometry N” value [5] was 2.

From paper PMC6827314, “An aldo-keto reductase with 2-keto-L-gulonate reductase activity functions in L-tartaric acid biosynthesis from vitamin C in Vitis vinifera” (The Journal of Biological Chemistry, 2019)
